Experiments:
IGF-1R = biological target: T1, IGF-1R (Homo sapiens, UniProt P08069); assay: Ligand blocking assay (RIA): 125I-IGF-1 / 125I-IGF-2 binding to immobilized IGF-1R; settings: for IGF Blocking IGF-2: 125I-IGF-2
T1 construct: human IGF-1R(1-903)-Fc (denoted hIGF-1R-Fc, generated by Biogen Idec)
Description: Ligand blocking assay (RIA). […] Insulin (Arg-Insulin, Cat #01-207) was purchased from Upstate Cell Signaling Solutions (Lake Placid, N.Y. (now part of Millipore, Concord, Mass. (USA)). ^125I-rhIGF-1 (Cat # IM172), ^125I-rhIGF-2 (Cat# IM238) and ^125I-rhInsulin (Cat# IM166) were purchased from Amersham Biosciences (Piscataway, N.J.). AffiPure goat anti-human IgG, Fcγ fragment specific antibodies (Cat #109-005-098, Jackson ImmunoResearch, West Grove, Pa.) was used for IGF-1R-Fc capture. As detection antibody, goat anti-mouse IgG HRP (Cat #1030-05, Southern Biotech Birmingham, Ala.) was used.
Human insulin receptor α-subunit specific antibodies, Clone 83-14, (Cat #AHR0221, Biosource International, Inc., Camarillo, Calif.) and the 47-9 (Cat #E55502M, Biodesign International, Saco, M E) were used as positive controls blocking of insulin-insulin receptor binding experiments. Recombinant IGF-1R-Fc fusion protein was produced at Biogen Idec (Cambridge, Mass.).
As isotype matched mouse negative control antibodies, 2B8 (murine α-CD20.1gG,) and 2B8 mkm.G2a (murine α-CD20 MAb, IgG2a, Biogen Idec, Lot #NB3304-87, San Diego, Calif.) were used. The negative control for Fabs was R001-1B provided by Christilyn Graff (Biogen Idec, Cambridge, Mass.). PBS used in buffers was from BioWhittaker (Cat. # 17-513F, Walkersville, Md.).
Recombinant human IGF-1R (Histidine tagged version) or IGF-1R-Fc was coated onto IMMULON2 HB (high binding) Removawell strips (Dynex Technologies, Inc., cat. #6302) diluted with carbonate coating buffer pH 9.5 to a concentration of 250 ng/well. After overnight incubation at 4° C., the wells were washed three times with washing buffer (0.05% Tween 20/PBS) then blocked with blocking buffer (3% BSA/PBS) for one hour at room temperature. The blocking buffer was removed and the wells washed three more times. Antibody, Fab, or ligand preparations were diluted to desired concentration with dilution buffer (1% BSA/0.05% Tween 20/PBS) and plated at 50 μl per well in duplicate. After 45 minutes at room temperature, 100,000 cpm of either [125I] rhIGF-1 or [125I] rhIGF-2 in 50 μl dilution buffer was added per well. This was incubated at room temperature for one more hour. The wells were washed again three more times and left liquid free after the last wash. The air-dried wells were counted with the Isodata Gamma Counter.
Alternatively, Fabs were evaluated by a modified capture assay, where the IGF-1R-Fc was captured using anti-human IgG immobilized to a plate. Immobilization was carried out by overnight incubation of goat anti-human IgG, Fcγ fragment specific antibody (200 ng/well) in carbonate coating buffer. The wells were washed, blocked and 250 ng of IGF-1R-Fc was added per well.
The ligand blocking ability of the anti-IGF-1R antibody was determined by a solid phase RIA capture method as described in Example 3. […] After 1 hour of incubation at room temperature, the wells were washed and counted for bound radioactivity by a Gamma Counter. An isotype matched negative antibody control, IDEC-151 (human G4), was used. Percent (%) inhibition was calculated as =[1−(Ave.CPM with Ab)/(Ave.CPM with buffer)]×100%.

IGF-1R phosphorylation = biological target: T2, IGF-1R phosphorylation (Homo sapiens, UniProt P08069); assay: Inhibition of IGF-1 and IGF-2 mediated IGF-1R phosphorylation in MCF-7 cells (ELISA); type: cell-based; settings: for Inhibition of IGF-1R Phosphorylation IGF-1 / Inhibition of IGF-1R Phosphorylation IGF-2: Fabs, MCF-7; for Inhibition of IGF-1R Phosphorylation IGF-1: IGF-1 stimulated; for Inhibition of IGF-1R Phosphorylation IGF-2: IGF-2 stimulated; for Inhibition of IGF-1R.pTyr IGF-1 / Inhibition of IGF-1R.pTyr IGF-2: murine monoclonal antibodies
T2 construct: wild type IGF-1R expressed on MCF-7 tumor cells; endogenous in cells; host or cells: MCF-7
Experimental: Cell lines: IGF1R expressing human breast carcinoma cell line MCF-7 (NCI) were maintained at 37° C. and 5% CO2 in MEM eagle (ATCC) containing 10% FBS, 1× non-essential amino acids, 2 mM L-glutamine, 1 mM sodium pyruvate and 1000 U/ml penicillin and streptomycin. Cells were sub-cultured twice weekly for maintenance and assay, and used with a maximum of 12 passages.
MCF-7 cells were plated in 2 ml growth media at 2×10^5 to 4.0×10^5 cells/well in Ploy-D-Lysine coated 12 well plates (BD Biosciences, #35-6470) and cultured at 37° C., 5% CO2. At 48 hours, media removed and cells serum starved overnight at 37° C., 5% CO2 Serum free media was removed and control or test antibodies at indicated concentration were added in 350 ul of fresh serum free media and incubated for 1 hour at room temperature, or alternately at 37° C. Fabs were tested at 200 nM, 20 nM and 2 nM concentration and the mAbs were tested at 67, 6.7 and 0.67 nM. The commercial anti-IGF-1R control antibody used was αIR3 (EMD biosciences, Oncogene Research products, #D27249). […] Ligand was incubated at […] for 37° C. antibody experiments. Cells were lysed in 1× cell lysis buffer (Cell Signal Technologies, #9803) with 1 mM PMSF for 1 hour at room temperature.
Cell lysates were added to ELISA plates pre-coated with IGF-1Rp antibody (Clone 1-2, Biosource International, #AHR0361) and incubated for 2 hours. Following which plates were washed and the plate bound phosphorylated receptor was detected with the biotin labeled anti-phosphotyrosine antibody 4G10 (Catalog #16-103, Upstate Cell Signaling Solutions (Lake Placid, N.Y. (now part of Millipore, Concord, Mass. (USA)) and streptavidin-HRP (BD Pharmingen, #554066). Assay is developed by addition of TMB substrate (Kierkegaard & Perry, #50-76-00) and color stopped by addition of […] (LabChem, Cat#LC25830-1). Optical density is measured at 450 nm using a Molecular Devices plate reader and percent inhibition over the ligand control is calculated for each antibody-ligand sample.
The effect of human anti-IGF-1R antibodies on IGF-1R signaling was evaluated using MCF-7 cells (human breast adenocarcinoma cells).

MCF-7 = assay: Ki67 inhibition in MCF-7 cells; type: cell-based, human; settings: breast cancer cell
NCI-H23 = assay: IGF driven tumor cell growth, CELL TITER-GLO, H-23; type: cell-based, human; settings: for inhibition of IGF-1 and IGF-2 driven cell proliferation in H-23: NCI-H23 lung tumor cell line; for Proliferation of Tumor Cells H-23: lung cancer cells
Experimental: (§1) NCI-H23, Calu-6, Colo-205, Panc-1, BxPC-3 (ATCC) tumor lines were purchased from ATCC. Cell lines were grown in complete growth medium containing RPMI-1640 (ATCC), 10% fetal bovine serum (Irvine Scientific Inc.) and 50 μg/ml of Gentamycin (Gibco, Invitrogen). Trypsin-EDTA solution (Sigma) was used for removal of adherent cells from culture vessels. Phosphate buffered saline, pH 7.2, was from MediaTech Inc The 96-well clear bottom plates for luminescent assay was purchased from Wallac Inc.
(§2) Cells grown to 80% monolayers were, trypsinized, washed, resuspended and plated into 96-well plates in 200 μl of 2% growth medium at 8×10^3 cells/well for NCI-H23 and Colo-205 cells; and 5×10^3 cells/well for Calu-6, Panc-1 and BxPC-3 cells. After 24 hours, the culture medium was replaced with 100 μl of serum free medium (SFM), and 50 μl of serially diluted antibodies at 4× concentration was added. […] All treatments were done in triplicates. Cell growth was measured using the CELL TITER-GLO™ Luminescent Cell Viability Assay (Promega, Madison, Wis.). The 1:1 mixture of reagent and SFM was added at 200 μl/well. Luminescence was detected on Wallac (Boston, Mass.) plate reader.
(§3) The ability of the selected murine antibodies to inhibit IGF/IGF-1R dependent in vitro growth of several human tumor lines (Lung, H-23, Calu-6; Pancreas, BxPc-3, Panc-1, MiaPaCa and Colon Colo205) was measured by a proliferation assay described in Example 13.
A commercially available anti-IGF-1R antibody (IR3) was used as a positive control. The mouse IgG (anti-IDectin, IgG1) and human gamma 4 version of IDEC-152 antibody of irrelevant specificity were used as isotype matched controls for the experiments. […]

Calu-6 = assay: IGF driven tumor cell growth, CELL TITER-GLO, Calu-6; type: cell-based, human; settings: lung cancer cells
Experimental: as §1, §2, §3

Panc-1 = assay: IGF driven tumor cell growth, CELL TITER-GLO, Panc-1; type: cell-based, human; settings: pancreatic cancer cell
Experimental: as §1, §2, §3

Colo-205 = assay: IGF driven tumor cell growth, CELL TITER-GLO, Colo-205; type: cell-based, human; settings: colon cancer cell
Experimental: as §1, §2, §3

Molecule	IGF Blocking IGF-1 (IGF-1R; Fabs, 125I-IGF-1)	IGF Blocking IGF-2 (IGF-1R; Fabs)	Inhibition of IGF-1R Phosphorylation IGF-1 (IGF-1R phosphorylation)	Inhibition of IGF-1R Phosphorylation IGF-2 (IGF-1R phosphorylation)	IGF Blocking IGF-1 (IGF-1R; murine monoclonal antibodies)	Inhibition of IGF-1R.pTyr IGF-1 (IGF-1R phosphorylation)	Inhibition of IGF-1R.pTyr IGF-2 (IGF-1R phosphorylation)	Proliferation of Tumor Cells MCF-7* (Ki67 Inhibit.) (MCF-7)	inhibition of IGF-1 and IGF-2 driven cell proliferation in H-23 (NCI-H23)	Proliferation of Tumor Cells H-23 (NCI-H23)	Proliferation of Tumor Cells Calu-6 (Calu-6)	Proliferation of Tumor Cells Panc-1 (Panc-1)	Proliferation of Tumor Cells Colo-205 (Colo-205)
Fab M12-G04: human anti-human IGF-1R Fab from phage display library; VH SEQ ID NO:9, VL SEQ ID NO:73 (antibody, V domains shown, Antibody variable heavy chain sequence; Antibody variable light chain sequence) VH: EVQLLESGGGLVQPGGSLRLSCAASGFTFSKYTMHWVRQAPGKGLEWVSSIVSSGGWTDYADSVKGRFTISRDNSKNTLYLQMNSLRAEDTAVYYCARDRSIAAAGTGWSVSFVDWFDPWGQGTLVTVSS VL: DIQMTQSPLSLSASVGDRVTITCRASQSINGYLNWYQQKPGKAPNLLIYATSSLQSGVPSRFSGSGSGTDFTLTISSLQPEDFATYYCQQSYSTPPYTFGQGTKLEIK	+ (>30%@10ug/ml)	+ (>30%@10ug/ml)	+ (>30%@10 ug/ml)	+ (>30%@10 ug/ml)									
P1A2.2B11: murine anti-human IGF-1R monoclonal antibody from hybridoma; VH SEQ ID NO:48, VL SEQ ID NO:108 (antibody, V domains shown, Antibody variable heavy chain sequence; Antibody variable light chain sequence) VH: QIQLVQSGPELKKPGETVKISCKASGYTFTNHGMNWVKQAPGKGLKWMGWNTSTGEPTYADDFKGRFAFSLETSASTAFLQINNLKNEDTASYFCASPLYYMYGRYIDVWGAGTAVTVSS VL: DIQMTQTTSSLSASLGDRVTISCRASQDISNYLNWYQQKPDGTIKLLIYYTSRLHSGVPSRFSGSGSGTDYSLTISNLEQEDFATYFCQQGKTLPWTFGGGTKLEIK					+++ (>40%@0.1 μg/ml)	+++ (>30%@0.1 μg/ml)	+++ (>30%@0.1 μg/ml)	++ (>50%@1 μg/ml)	showed inhibition	+++ (>30%@0.1 μg/ml)	++ (>30%@1 μg/ml)	+++ (>30%@0.1 μg/ml)	+++ (>30%@0.1 μg/ml)
P2A7.3E11: murine anti-human IGF-1R monoclonal antibody from hybridoma; VH SEQ ID NO:38, VL SEQ ID NO:98 (antibody, V domains shown, Antibody variable heavy chain sequence; Antibody variable light chain sequence) VH: QVQLQQSGPELVKPGASVKMSCKASGNTFTDYVINWVKQRTGQGLEWIGEIYPGNENTYYNEKFKGKATLTADKSSNTAYMQLSSLTSEDSAVYFCARGIYYYGSRTRTMDYWGQGTSVTVSS VL: EVVLTQSPTAMAASPGEKITITCSASSTLSSNYLHWYQQKPGFSPKLLIYRTSNLASGVPGRFSGSGSGTSYSLTIGTMEAEDVATYYCQQGSSIPLTFGAGTKLELK					+++ (>40%@0.1 μg/ml)	+++ (>30%@0.1 μg/ml)	++ (>30%@1 μg/ml)	++ (>50%@1 μg/ml)	showed inhibition	++++ (>30%@0.01 μg/ml)	+++ (>30%@0.1 μg/ml)	++++ (>30%@0.01 μg/ml)	+++ (>30%@0.1 μg/ml)
Fab M14-B01: human anti-human IGF-1R Fab from phage display library; VH SEQ ID NO:20, VL SEQ ID NO:83 (antibody, V domains shown, Antibody variable heavy chain sequence; Antibody variable light chain sequence) VH: EVQLLESGGGLVQPGGSLRLSCAASGFTFSNYHMAWVRQAPGKGLEWVSVISPTGGRTTYADSVKGRFTISRDNSKNTLYLQMNSLRAEDTATYYCARAGYSYGYGYFDYWGQGTLVTVSS VL: DIQMTQFPATLSVSPGERATLSCRASQSVMRNLAWYQQKPGQPPRLLIYGASKRATGIPARFSGSGSGTAFTLTISNLEPEDFAVYYCHQRSTWPLGTFGPGTKLEAK	++ (>30%@1ug/ml)	++ (>30%@1ug/ml)	++ (>30%@1ug/ml)	++ (>30%@1ug/ml)									

Source: US20090291088A1, “THERAPEUTIC COMBINATIONS OF ANTI-IGF-1R ANTIBODIES AND OTHER COMPOUNDS” (Biogen Idec MA Inc., priority 2008, published 2009)
